For test [1], the target named is P. acnes total surface protein extract. As to the kind of experiment: plate assay, extract 0.8 to 50 µg/ml immobilized, biotinylated fibrinogen 0.1 µg/ml.
Test [2] deals with human fibrinogen (purified, commercial) (human) (UniProt P02671). The test can be described thus: fibrinogen binding activity after ammonium sulfate precipitation, biotinylated fibrinogen.
The target is the same in test [3]. As to the kind of experiment: fibrinogen binding activity of purification step, biotinylated fibrinogen.
Test [4] shares this target. As to the kind of experiment: fibrinogen binding activity of the anion exchange pool (partly purified Pfg), biotinylated fibrinogen.
Test [5] has the same target. The test can be described thus: fibrinogen binding activity of the gel filtration pool (pure Pfg), biotinylated fibrinogen. A general note: In gel filtration, larger molecules generally elute earlier.

From patent US20180105574A1 come the findings set out here.

Where “and” joins values, the source holds several entries; their conditions need not be identical. Equal values may be shown once.

UniProt P02671, sequence (P02671 20-629 limits assumed, chain 1 of 3): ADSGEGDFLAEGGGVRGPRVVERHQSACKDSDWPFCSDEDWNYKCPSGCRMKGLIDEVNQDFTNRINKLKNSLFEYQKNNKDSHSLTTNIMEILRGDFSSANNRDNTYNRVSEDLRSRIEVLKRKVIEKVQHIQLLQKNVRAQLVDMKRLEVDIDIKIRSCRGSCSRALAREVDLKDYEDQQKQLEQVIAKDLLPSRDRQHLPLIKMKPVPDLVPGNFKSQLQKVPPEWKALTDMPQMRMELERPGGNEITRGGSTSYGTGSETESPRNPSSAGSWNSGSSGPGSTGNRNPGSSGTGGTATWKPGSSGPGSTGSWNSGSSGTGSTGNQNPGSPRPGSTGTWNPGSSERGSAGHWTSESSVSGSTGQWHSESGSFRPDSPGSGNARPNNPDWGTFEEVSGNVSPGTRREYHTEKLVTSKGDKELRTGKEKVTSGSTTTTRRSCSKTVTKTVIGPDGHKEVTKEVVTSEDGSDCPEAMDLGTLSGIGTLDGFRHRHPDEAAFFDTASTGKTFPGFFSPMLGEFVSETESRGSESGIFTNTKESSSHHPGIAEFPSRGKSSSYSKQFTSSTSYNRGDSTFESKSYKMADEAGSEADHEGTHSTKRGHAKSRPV
UniProt P02671, sequence (chain, as listed by the source limits assumed, chain 2 of 3): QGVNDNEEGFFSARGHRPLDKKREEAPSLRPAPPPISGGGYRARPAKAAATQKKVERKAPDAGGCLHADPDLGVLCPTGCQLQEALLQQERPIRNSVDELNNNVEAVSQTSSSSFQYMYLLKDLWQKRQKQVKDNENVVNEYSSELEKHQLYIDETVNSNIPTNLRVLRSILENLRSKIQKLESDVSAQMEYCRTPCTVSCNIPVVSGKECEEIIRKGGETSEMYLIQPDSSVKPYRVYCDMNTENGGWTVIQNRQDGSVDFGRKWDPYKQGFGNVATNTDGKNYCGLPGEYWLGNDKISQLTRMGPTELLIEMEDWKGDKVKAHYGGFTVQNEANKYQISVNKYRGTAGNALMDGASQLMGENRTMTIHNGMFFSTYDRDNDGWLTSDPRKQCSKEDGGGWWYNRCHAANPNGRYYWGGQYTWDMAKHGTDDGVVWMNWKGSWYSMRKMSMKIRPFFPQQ
UniProt P02671, sequence (P02679 other isoform, or with tags, fused parts or gaps limits assumed, chain 3 of 3, further chain): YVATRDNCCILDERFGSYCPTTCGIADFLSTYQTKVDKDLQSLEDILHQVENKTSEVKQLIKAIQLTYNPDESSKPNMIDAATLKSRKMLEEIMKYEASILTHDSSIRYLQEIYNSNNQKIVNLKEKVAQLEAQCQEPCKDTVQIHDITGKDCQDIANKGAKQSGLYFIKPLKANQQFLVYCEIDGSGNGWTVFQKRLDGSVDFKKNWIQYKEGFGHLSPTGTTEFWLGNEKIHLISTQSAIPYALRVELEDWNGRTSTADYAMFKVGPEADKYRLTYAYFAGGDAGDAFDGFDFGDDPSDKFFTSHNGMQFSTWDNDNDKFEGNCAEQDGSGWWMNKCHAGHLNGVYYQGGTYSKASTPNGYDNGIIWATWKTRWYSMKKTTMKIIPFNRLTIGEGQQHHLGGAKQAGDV

For the substance “human fibrinogen (purified, commercial) (from UniProt P02671 20-629; P02679 27-437) (ligand)”, the concentration of immobilized extract at which binding reaches a plateau in test [1] was found to be 6.25 µg/mL.
Substance P. acnes total surface protein extract registered a fold increase in specific activity against the unconcentrated lithium extract in test [2] of 1.45 fold. Moreover, in test [3], the Specific Activity (fibrinogen binding activity per unit of protein) is 423 U/mg and 290 U/mg; the Total units (fibrinogen binding activity) was 390000 U and 160000 U.
For the substance “Pfg, 58-kDa P. acnes surface protein (fibrinogen binding protein; putative adhesion or S-layer protein YP_056792, locus tag PPA2127)”, in test [4], the Specific Activity (fibrinogen binding activity per unit of protein) amounted to 1030 U/mg and the Total units (fibrinogen binding activity) worked out at 3000 U. Moreover, in test [5], the Specific Activity (fibrinogen binding activity per unit of protein) stood at 1840 U/mg and the Total units (fibrinogen binding activity) came to 368 U.
